Test results published in patent US20250281611A1 (BIOSCEPTRE AUST, published 2025).

Target: T1, EGFR (UniProt P00533 25-1210)
T1 construct: whole, on cells
Experiment: flow cytometry, MDA-MB 231 and PC-3 cells

binding result: binds
B1: EGFR bridging molecule (E200 + EGFR binder, Matuzumab, B035) (Fab, V domains shown)
VH: QVQLVQSGAEVKKPGASVKVSCKASGYTFTSHWMHWVRQAPGQGLEWIGEFNPSNGRTNYNEKFKSKATMTVDTSTNTAYMELSSLRSEDTAVYYCASRDYDYDGRYFDYWGQGTLVTVSS
VL: DIQMTQSPSSLSASVGDRVTITCSASSSVTYMYWYQQKPGKAPKLLIYDTSNLASGVPSRFSGSGSGTDYTFTISSLQPEDIATYYCQQWSSHIFTFGQGTKVEIKR
